According to patent EP2717941B1:

Columns and labels:
Experiment in all cases: cell-based or functional assay
[1] = target: hCXCR4 (human) (UniProt P61073)
[2] = target: hCCR9 (human) (UniProt P51686)
[3] = target: CCR6 (human) (UniProt P51684)
[4] = target: hCCR10 (human) (UniProt P46092)
[5] = target: hCXCR3 (human) (UniProt P49682)
[6] = target: hCCR2b (human) (UniProt P41597)
[7] = target: CCR4 (human) (UniProt P51679)
[8] = target: chemokine receptor CCR7 (human) (UniProt P32248)
chemokine receptor CCR7 (human), sequence (P32248 25-378): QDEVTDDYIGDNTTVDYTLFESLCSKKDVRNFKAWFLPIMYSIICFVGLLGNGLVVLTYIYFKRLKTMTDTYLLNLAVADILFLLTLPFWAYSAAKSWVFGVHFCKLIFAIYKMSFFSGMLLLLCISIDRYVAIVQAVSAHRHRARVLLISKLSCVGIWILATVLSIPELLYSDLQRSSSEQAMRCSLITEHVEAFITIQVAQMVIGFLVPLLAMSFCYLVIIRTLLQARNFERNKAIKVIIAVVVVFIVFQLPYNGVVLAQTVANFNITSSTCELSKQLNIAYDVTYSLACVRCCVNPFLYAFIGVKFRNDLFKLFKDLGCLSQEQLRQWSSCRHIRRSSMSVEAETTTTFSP

hCXCR3 (human), sequence (P49682 whole entry): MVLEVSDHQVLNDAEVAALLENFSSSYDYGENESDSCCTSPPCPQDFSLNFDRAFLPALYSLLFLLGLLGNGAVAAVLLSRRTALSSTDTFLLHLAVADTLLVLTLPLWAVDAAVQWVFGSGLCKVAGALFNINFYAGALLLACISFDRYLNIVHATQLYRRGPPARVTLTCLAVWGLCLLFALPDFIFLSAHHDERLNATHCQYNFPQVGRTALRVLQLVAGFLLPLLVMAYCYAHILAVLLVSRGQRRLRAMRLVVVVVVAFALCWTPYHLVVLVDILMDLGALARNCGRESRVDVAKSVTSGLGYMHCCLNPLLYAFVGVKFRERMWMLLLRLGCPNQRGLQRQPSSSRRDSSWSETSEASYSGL
hCCR9 (human), sequence (P51686 whole entry): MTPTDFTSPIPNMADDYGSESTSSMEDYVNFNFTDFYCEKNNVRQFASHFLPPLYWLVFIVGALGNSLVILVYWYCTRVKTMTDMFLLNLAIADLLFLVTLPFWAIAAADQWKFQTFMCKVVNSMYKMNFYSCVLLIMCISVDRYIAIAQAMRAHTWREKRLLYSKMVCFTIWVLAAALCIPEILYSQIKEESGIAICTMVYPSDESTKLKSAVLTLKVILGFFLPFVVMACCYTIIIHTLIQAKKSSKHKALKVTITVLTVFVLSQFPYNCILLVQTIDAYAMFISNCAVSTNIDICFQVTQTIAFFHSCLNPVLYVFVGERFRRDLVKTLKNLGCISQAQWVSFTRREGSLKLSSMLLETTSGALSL
CCR6 (human), sequence (P51684 whole entry): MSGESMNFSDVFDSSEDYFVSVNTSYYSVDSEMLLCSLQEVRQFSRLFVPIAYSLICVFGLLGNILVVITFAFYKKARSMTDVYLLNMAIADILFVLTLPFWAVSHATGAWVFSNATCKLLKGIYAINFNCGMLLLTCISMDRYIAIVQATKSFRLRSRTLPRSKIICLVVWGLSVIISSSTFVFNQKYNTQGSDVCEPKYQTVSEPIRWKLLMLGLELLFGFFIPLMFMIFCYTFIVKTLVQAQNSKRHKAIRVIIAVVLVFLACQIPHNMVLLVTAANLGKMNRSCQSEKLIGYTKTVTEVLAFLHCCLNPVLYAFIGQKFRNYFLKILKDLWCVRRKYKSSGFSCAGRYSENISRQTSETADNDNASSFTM
CCR4 (human), sequence (P51679 whole entry): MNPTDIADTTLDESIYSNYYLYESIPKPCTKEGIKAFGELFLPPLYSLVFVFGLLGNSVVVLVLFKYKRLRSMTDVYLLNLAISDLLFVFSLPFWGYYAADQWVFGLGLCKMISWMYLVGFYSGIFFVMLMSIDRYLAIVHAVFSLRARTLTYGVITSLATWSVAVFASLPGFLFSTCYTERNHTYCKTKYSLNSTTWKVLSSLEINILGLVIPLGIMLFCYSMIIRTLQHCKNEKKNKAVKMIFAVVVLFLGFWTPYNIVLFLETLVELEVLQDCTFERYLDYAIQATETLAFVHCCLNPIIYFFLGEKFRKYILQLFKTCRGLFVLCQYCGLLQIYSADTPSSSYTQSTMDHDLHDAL
hCXCR4 (human), sequence (P61073 whole entry): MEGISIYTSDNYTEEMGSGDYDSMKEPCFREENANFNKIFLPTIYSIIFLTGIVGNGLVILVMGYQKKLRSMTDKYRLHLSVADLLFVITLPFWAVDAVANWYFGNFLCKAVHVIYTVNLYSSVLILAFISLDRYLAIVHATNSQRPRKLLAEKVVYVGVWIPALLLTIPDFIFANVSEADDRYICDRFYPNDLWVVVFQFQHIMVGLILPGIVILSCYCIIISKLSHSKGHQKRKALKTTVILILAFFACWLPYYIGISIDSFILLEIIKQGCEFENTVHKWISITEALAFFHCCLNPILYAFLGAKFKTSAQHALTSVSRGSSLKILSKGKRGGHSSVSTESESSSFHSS
hCCR10 (human), sequence (P46092 whole entry): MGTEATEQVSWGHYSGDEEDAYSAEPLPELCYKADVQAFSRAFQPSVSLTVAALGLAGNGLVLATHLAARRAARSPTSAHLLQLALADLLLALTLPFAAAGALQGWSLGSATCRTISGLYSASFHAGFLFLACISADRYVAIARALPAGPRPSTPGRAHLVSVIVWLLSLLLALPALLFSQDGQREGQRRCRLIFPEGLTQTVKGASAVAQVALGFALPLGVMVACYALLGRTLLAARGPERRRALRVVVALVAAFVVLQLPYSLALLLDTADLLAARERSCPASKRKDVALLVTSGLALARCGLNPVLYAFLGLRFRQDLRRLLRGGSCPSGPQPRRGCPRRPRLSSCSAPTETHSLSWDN
hCCR2b (human), sequence (P41597 other isoform, or with tags, fused parts or gaps limits assumed): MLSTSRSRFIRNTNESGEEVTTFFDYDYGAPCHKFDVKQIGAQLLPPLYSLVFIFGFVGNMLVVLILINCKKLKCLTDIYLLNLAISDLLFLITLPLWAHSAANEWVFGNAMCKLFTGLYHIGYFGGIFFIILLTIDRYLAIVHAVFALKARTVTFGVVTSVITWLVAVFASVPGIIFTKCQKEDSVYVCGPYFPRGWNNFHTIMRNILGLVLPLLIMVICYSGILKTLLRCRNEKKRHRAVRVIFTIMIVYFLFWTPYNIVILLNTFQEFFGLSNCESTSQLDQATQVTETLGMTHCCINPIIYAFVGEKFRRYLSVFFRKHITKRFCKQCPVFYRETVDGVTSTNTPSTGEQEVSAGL

With “biotinSDF-1α (CXCL12), SDF-1α derivatised at the ε-amino side chain functionality of Lys(64) with Biotin (from UniProt P48061 22-67) (ligand)” the EC50, agonist activity, Aequorin assay [1] was 17.3 nM.
“biotinTECK(Met to Nleu substitution) (CCL25), derivatised at the ε-amino side chain functionality of Lys72 with PEG-Biotin (from UniProt O15444 25-97) (ligand)” gave an EC50, agonist activity, Aequorin assay [2] of 63.6 nM.
For “biotinylated MIP-3alpha (from UniProt P78556 27-96) (ligand)”, the reduction of CCR6-expressing cells by the column (flow cytometry before and after passage) [3] was < 15%.
Work on “recombinant native CTAC (from UniProt Q9Y4X3 25-112) (ligand)” yielded an EC50, agonist activity, Aequorin assay [4] of 33.5 nM.
In the case of “recombinant native IP-10 (from UniProt P02778 22-98) (ligand)”, the EC50, agonist activity, Aequorin assay [5] was 4.4 nM.
For “recombinant native ITAC (from UniProt O14625 22-94) (ligand)”, the EC50, agonist activity, Aequorin assay [5] was 0.7 nM.
“recombinant native MCP-2 (from UniProt P80075 24-99) (ligand)” showed an EC50, Aequorin assay (partial agonist) [6] of 23.5 nM.
With “recombinant native MDC (from UniProt O00626 25-93) (ligand)” the EC50, agonist activity, Aequorin assay [7] was 3.6 nM.
In the case of “recombinant native MIP-3α (from UniProt P78556 27-96) (ligand)”, the EC50, agonist activity, Aequorin assay [3] was 1 nM.
With “recombinant native MIP-3β (from UniProt Q99731 22-98) (ligand)” the EC50, agonist activity, Aequorin assay [8] was 1.6 nM.
With “recombinant native TARC (from UniProt Q92583 24-94) (ligand)” the EC50, agonist activity, Aequorin assay [7] was 2.6 nM.
Work on “recombinant native TECK (from UniProt O15444 24-150) (ligand)” yielded an EC50, agonist activity, Aequorin assay [2] of 67.9 nM.
